# What was measured:
# Format in all cases: biochemical, Prevotella bryantii
# [1] = substrate: O=[N+]([O-])c1ccc(O[C@@H]2OC[C@@H](O)[C@H](O)[C@H]2O)cc1; assay: Steady state kinetics of pNP substrate hydrolysis, Pb911 WT; conditions: other: Pb911 WT, pNP assay per Example 2 (sodium citrate, pH 5.5, 37° C.)
# Protocol: (§1) Enzyme-catalyzed hydrolysis of para-nitrophenyl (pNP)-linked monosaccharide substrates was assayed using a thermostated Synergy II multi-mode microplate reader from BioTek Instruments Inc. (Winooski, Vt.). A library of pNP substrates were screened for activity including: pNP-α-L-arabinopyranoside, pNP-α-L-arabinofuranoside, pNP-β-D-fucopyranoside, pNP-α-L-fucopyranoside, pNP-α-D-galactopyranoside, pNP-β-D-galactopyranoside, pNP-α-D-glucopyranoside, pNP-β-D-glucopyranoside, pNP-β-D-maltopyranoside, pNP-α-D-maltopyranoside, pNP-α-D-mannopyranoside, pNP-β-D-mannopyranoside, pNP-α-L-rhamnopyranoside, pNP-β-D-xylopyranoside, pNP-β-D-cellobioside. The substrates (1 mM) in citrate buffer (100 μL; 50 mM sodium citrate, 150 mM NaCl, pH 5.5) were incubated at 37° C. in the presence or absence of Pb886 (0.2 μM) for 30 min, and the level of pNP release was determined by continuously monitoring the absorbance at 400 nm. The pathlength correction feature of the instrument was employed to convert the absorbance values recorded to correspond to a 1 cm pathlength. The extinction coefficient for pNP at pH 5.5 and a wavelength of 400 nm was measured as 0.673 mM^−1cm^−1.
# (§2) FIG. 4c illustrates the kinetics of pNP substrate hydrolysis. The activity of Pb886 was verified with para-nitrophenyl derivatives of xylose and arabinose as indicated in the x-axes. These substrates are artificial substrates for the enzyme. Kinetic studies of Pb886 were performed using a thermostated Synergy II multi-mode microplate reader from BioTek Instruments Inc. (Winooski, Vt.). pNP-β-D-Xylopyranoside (0-46.25 mM) or pNP-α-L-arabinofuranoside (0-25 mM) were incubated in a citrate reaction buffer (100 μL; 50 mM sodium citrate, 150 mM NaCl, pH 5.5) at 37° C. in a 96-well flat bottom microtiter plate, and reactions were initiated by the addition of Pb886 (0.2 μM). Hydrolysis of pNP-β-D-xylopyranoside and pNP-α-L-arabinofuranoside were continuously monitored by recording the UV signal at 400 nm. Initial rate data were then plotted against the substrate concentration, and kinetic values were estimated by applying a nonlinear curve fit using GraphPad Prism v5.02 from GraphPad Software (San Diego, Calif.). The extinction coefficient for para-nitrophenol at pH 5.5 and a wavelength of 400 nm was measured as 0.673 mM^−1cm^−1.
# (§3) Pb911 protein was expressed and purified according to the methods described in Example 1. […] The activity of Pb911 on pNP substrates was measured according to the methods described in Example 2.
# [2] = substrate: O=[N+]([O-])c1ccc(O[C@@H]2O[C@H](CO)[C@@H](O)[C@H](O)[C@H]2O)cc1; assay: as above; conditions: other: Pb911 WT, pNP assay per Example 2 (sodium citrate, pH 5.5, 37° C.)
# Protocol: as §1, §2, §3
# [3] = substrate: O=[N+]([O-])c1ccc(O[C@@H]2OC[C@@H](O)[C@H](O)[C@H]2O)cc1; assay: Steady state kinetics of pNP substrate hydrolysis, Pb911 E115A; conditions: other: Pb911 E115A, pNP assay per Example 2 (sodium citrate, pH 5.5, 37° C.)
# Protocol: as §1, §2, §3
# [4] = substrate: O=[N+]([O-])c1ccc(O[C@@H]2O[C@H](CO)[C@@H](O)[C@H](O)[C@H]2O)cc1; assay: as above; conditions: other: Pb911 E115A, pNP assay per Example 2 (sodium citrate, pH 5.5, 37° C.)
# Protocol: as §1, §2, §3
# [5] = substrate: O=[N+]([O-])c1ccc(O[C@@H]2OC[C@@H](O)[C@H](O)[C@H]2O)cc1; assay: Steady state kinetics of pNP substrate hydrolysis, Pb911 E115D; conditions: other: Pb911 E115D, pNP assay per Example 2 (sodium citrate, pH 5.5, 37° C.)
# Protocol: as §1, §2, §3
# [6] = substrate: O=[N+]([O-])c1ccc(O[C@@H]2O[C@H](CO)[C@@H](O)[C@H](O)[C@H]2O)cc1; assay: as above; conditions: other: Pb911 E115D, pNP assay per Example 2 (sodium citrate, pH 5.5, 37° C.)
# Protocol: as §1, §2, §3
protein,measurement,setting,value
"Prevotella bryantii β-xylosidase/β-glucosidase Pb911 (alternatively named Pb2369), wild type, SEQ ID NO: 6 (Segatella baroniae B14) (protein) QTILINQQVDALYDRMSQEERINQLRSGYMDDLFDEQGNLDTVKCKELIPFGIGHFSQYASQKPLDANILRDRVAAVQDWLIHHTPNGIPALFHEEVLSGVNTKDATIYPQQIGQACSFNPELAERKTLQTGIDMRKMGGVLSLSPMVDVCRNPSFNRLEESYGEDGYLSAVMGTAFVKGLQQGDLTKGVGACSKHYLGYGGGGDAKEKEMMEEILLPHETMIRLAGSKALMPGYHAVHGTNCVANHEILTDILRGYLGFDGMVVSDYTAIDQIPGLDTPLQKATAAINAGNDVDFPHGANYKFLQEGLDKGMVKSEAFERAVKDVLRHKYRQGLFDKNAYLYSKDPIQLDSKEERQTAYDIATQSVVLLENKGILPLRGKQNIFVTGPNANTMWAMCGDYSFPAMTYFWKKVTEDLDHPHIVKLLEGMKDRKPAGINISYSRGCDWTDTIETKYAVSGDERAWEYEVLHRKVDSGEKADETEALAMAKEADVIIAAVGENVMLCGENRDRQGLCLPGHQEQYVERLLATGKPVVLVVFGGRAQVISNIANRCAAVIQAWYPGEEGGHAVADILYGNVSPSAKLSVSYPNVELNEPICYNYSAKQDSRVAWPFGYGLSYTTFDYSNLEVPTEVKTSDESLHIAFEVANTGKMDADEIAQVYLSPTQENQNIRPIQLQGFARISLKAGERKKVKVKLYTEQFGYYSNNGKRQWNIAPGTFTVKIGASSQDIKLQKNITVKGDIVVKPLRDFYFSEVIK",Km,[1],8.4 ± 1 mM
same,kcat,[1],250 ± 10 s⁻¹
same,kcat/Km,[1],30000 ± 4000 M⁻¹ s⁻¹
same,Km,[2],22 ± 1 mM
same,kcat,[2],19 ± 0.6 s⁻¹
same,kcat/Km,[2],860 ± 50 M⁻¹ s⁻¹
"Prevotella bryantii β-xylosidase/β-glucosidase Pb911 (alternatively named Pb2369, wild type SEQ ID NO: 6) variant E115A (Segatella baroniae B14; E115A) (protein) QTILINQQVDALYDRMSQEERINQLRSGYMDDLFDEQGNLDTVKCKELIPFGIGHFSQYASQKPLDANILRDRVAAVQDWLIHHTPNGIPALFHEAVLSGVNTKDATIYPQQIGQACSFNPELAERKTLQTGIDMRKMGGVLSLSPMVDVCRNPSFNRLEESYGEDGYLSAVMGTAFVKGLQQGDLTKGVGACSKHYLGYGGGGDAKEKEMMEEILLPHETMIRLAGSKALMPGYHAVHGTNCVANHEILTDILRGYLGFDGMVVSDYTAIDQIPGLDTPLQKATAAINAGNDVDFPHGANYKFLQEGLDKGMVKSEAFERAVKDVLRHKYRQGLFDKNAYLYSKDPIQLDSKEERQTAYDIATQSVVLLENKGILPLRGKQNIFVTGPNANTMWAMCGDYSFPAMTYFWKKVTEDLDHPHIVKLLEGMKDRKPAGINISYSRGCDWTDTIETKYAVSGDERAWEYEVLHRKVDSGEKADETEALAMAKEADVIIAAVGENVMLCGENRDRQGLCLPGHQEQYVERLLATGKPVVLVVFGGRAQVISNIANRCAAVIQAWYPGEEGGHAVADILYGNVSPSAKLSVSYPNVELNEPICYNYSAKQDSRVAWPFGYGLSYTTFDYSNLEVPTEVKTSDESLHIAFEVANTGKMDADEIAQVYLSPTQENQNIRPIQLQGFARISLKAGERKKVKVKLYTEQFGYYSNNGKRQWNIAPGTFTVKIGASSQDIKLQKNITVKGDIVVKPLRDFYFSEVIK",Km,[3],28 ± 3 mM
same,kcat,[3],0.35 ± 0.02 s⁻¹
same,kcat/Km,[3],13 ± 2 M⁻¹ s⁻¹
same,Km,[4],39 ± 4 mM
same,kcat,[4],0.087 ± 0.005 s⁻¹
same,kcat/Km,[4],2.2 ± 0.3 M⁻¹ s⁻¹
"Prevotella bryantii β-xylosidase/β-glucosidase Pb911 (alternatively named Pb2369, wild type SEQ ID NO: 6) variant E115D (Segatella baroniae B14; E115D) (protein) QTILINQQVDALYDRMSQEERINQLRSGYMDDLFDEQGNLDTVKCKELIPFGIGHFSQYASQKPLDANILRDRVAAVQDWLIHHTPNGIPALFHEDVLSGVNTKDATIYPQQIGQACSFNPELAERKTLQTGIDMRKMGGVLSLSPMVDVCRNPSFNRLEESYGEDGYLSAVMGTAFVKGLQQGDLTKGVGACSKHYLGYGGGGDAKEKEMMEEILLPHETMIRLAGSKALMPGYHAVHGTNCVANHEILTDILRGYLGFDGMVVSDYTAIDQIPGLDTPLQKATAAINAGNDVDFPHGANYKFLQEGLDKGMVKSEAFERAVKDVLRHKYRQGLFDKNAYLYSKDPIQLDSKEERQTAYDIATQSVVLLENKGILPLRGKQNIFVTGPNANTMWAMCGDYSFPAMTYFWKKVTEDLDHPHIVKLLEGMKDRKPAGINISYSRGCDWTDTIETKYAVSGDERAWEYEVLHRKVDSGEKADETEALAMAKEADVIIAAVGENVMLCGENRDRQGLCLPGHQEQYVERLLATGKPVVLVVFGGRAQVISNIANRCAAVIQAWYPGEEGGHAVADILYGNVSPSAKLSVSYPNVELNEPICYNYSAKQDSRVAWPFGYGLSYTTFDYSNLEVPTEVKTSDESLHIAFEVANTGKMDADEIAQVYLSPTQENQNIRPIQLQGFARISLKAGERKKVKVKLYTEQFGYYSNNGKRQWNIAPGTFTVKIGASSQDIKLQKNITVKGDIVVKPLRDFYFSEVIK",Km,[5],39 ± 4 mM
same,kcat,[5],87 ± 5 s⁻¹
same,kcat/Km,[5],2200 ± 200 M⁻¹ s⁻¹
same,Km,[6],17 ± 1 mM
same,kcat,[6],16 ± 0.4 s⁻¹
same,kcat/Km,[6],940 ± 60 M⁻¹ s⁻¹

# Source: patent US9012186B2, “Hemicellulose-degrading enzymes” (The Board of Trustees of the University of Illinois, priority 2009, dated 2015)
